Results taken from the RNAGym collection of RNA variant scans (doi:10.1073/pnas.2313332121).

B1: TPR t1 (parent)
chain: GACCAAUCUGCCCUCAGAGCUCGAGAACAUCUUCGGAUGCAGAGGAGGCAGGCUUCGGUGGCGCGAUAGCGCCAACGUCCUCAACCUCCAAUGCAUCCCACCACAUGAUGAUGCCUGAAGAGCCUUGGUUUUUUG

Variants of: B1
Test: polymerase ribozyme fitness, log enrichment relative to wild type (log ratio); higher = more active; in vitro selection for triplet polymerase activity
Outline: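 PCR was used to build mutant libraries for each subunit of a heterodimeric triplet polymerase ribozyme, which were then transcribed. A single in vitro selection round, in triplicate, used a frozen incubation at −7 °C and recovered extended constructs by gel excision, streptavidin beads and RT-PCR. Fitness is the logarithm of genotype enrichment relative to wild-type enrichment, averaged over replicates with inverse-variance weights. The logarithm is base 2, and after Illumina sequencing only genotypes with ≥10 input reads and ≥1 read per output were kept.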

In order of falling “polymerase ribozyme fitness (log ratio)” value:
1. G60C C89U C123G  1.06
2. G60U C115A U125G  0.39
3. G60U U87A  0.377
4. U59A C104U  0.251
5. G60U A83C  0.15
6. G60C U130A  0.137
7. G58C G77A C97U  0.13
8. U59A G60A  0.122
9. G61A C98U G120U  -0.011
10. G60U A83U  -0.0168
11. U59C U78G  -0.0388
12. G60C A118U  -0.0622
13. G60A U96C A118G  -0.126
14. G60C G77U  -0.19
15. G57U U81G  -0.222
16. G60A C101U  -0.265
17. G60C U129C  -0.277
18. G60A G77U  -0.312
19. G57U C62G A121G U130A  -0.352
20. G61A C98U  -0.37
21. U59C G127U  -0.462
22. G60U G117A  -0.487
23. G57C C97U  -0.494
24. G61A U92C  -0.505
25. G58A G60A  -0.506
26. U59C G122A C123U G128C  -0.638
27. U59C A91C G120C U133C G135U  -0.803
28. G57U A74G  -0.836
29. G57U C94A  -1.08
30. G60U C102U  -1.09
31. U59C U78C A83U C115A  -1.1
32. G58A A111C A119C G120U G127U  -1.16
33. G58C C101G U112C U129G  -1.34
34. G58C A84U A100C  -1.55
35. G61A G71U  -1.6
36. G60A C80U  -1.64
37. G60C U131A  -1.69
38. G60A G110U  -1.74
39. G60A G117U  -1.75
40. G58C G63C G128A  -1.77
41. G60U U78A C89G  -1.87
42. G57C C88U A95U  -1.98
43. U59G C73A C88A  -2.15
44. G60C C104A  -2.18
45. G60C C62U  -2.34
46. G60A G117C  -2.42
47. G61A U129G U130A  -2.53
48. G57U G77C U130G  -2.56
49. G58A C62A  -2.66
50. G58C C102A  -2.66
51. G61A C88U A105G  -2.9
52. G61A C73U A91C C101A  -2.91
53. G58C G93A C114U  -3.02
54. G57U A91G C114A U131A  -3.11
55. G58A C82G C88A G127U  -3.33
56. G60U G117C  -3.52
57. U59C G93C G113U U133G  -3.53
58. G60A C80A C88A  -3.61
59. G61C C79A A95G G127A  -3.63
60. G60C C102A  -3.75
61. G61A C97A  -3.78
62. G57U U78G C114U A118U  -3.81
63. G58C C86A C89G  -4.05
64. G61A G69A  -4.21
65. G58U A103C A121G  -4.29
66. U59G G63A U87C C114U  -4.39
67. G57C G61A C97G  -4.41
68. G61C A66C G135U  -4.47
69. G61A A111U U116C  -4.5
70. G60A G69U C82U C85G U129A  -4.53
71. G61A G69C U116C  -4.59
72. G57C C97G  -4.65
73. G60C G61A C101A C123A U129A  -4.67
74. G61A C98A  -4.75
75. G60C G117C A121C  -4.85
76. G57U G93A G110C  -5.09
77. U59C C102U C114G  -5.47
78. G60A C80A C85G C98U  -5.64
79. G61C C64G A111C  -6.11
80. G61A U67A  -6.59
81. U59C U109C C114A  -6.67
82. G61A A108U G120U  -6.8
83. G60U G63A C97A C99A A111U G122U U130A  -6.95
